Experimental data taken from the supplement of paper PMC7125110.
± gives the standard error. Fewer inactive variants are shown than the library holds.

B1: glmS ribozyme (parent)
chain: AUAAAAGCGCCAGAACUACAGAAAUGUAGUUGACGAGGAGGAGGUUUAUCGAAUUUUCGGCGGAUGCCUCCAAA

What was measured:
Details in all cases: with glucosamine-6-phosphate
[1] = variants of: B1; assay: self-cleavage kobs at 40 uM GlcN6P; higher = faster cleavage; RNA array
Method in brief: (§1)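 Glucosamine-6-phosphate in HEPES/KCl/Mg(OAc)2 buffer, at 40 μM to 10 mM, was flowed over barcoded ribozyme variants transcribed in situ by E. coli RNA polymerase on sequenced MiSeq chips. Tracking was through a hybridised Cy3 probe at 37 °C. kobs, kcat and KM came from exponential decay fits and weighted Michaelis–Menten fits of normalised per-tile medians.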

[2] = variants of: B1; assay: self-cleavage kobs at 2500 uM GlcN6P; higher = faster cleavage; RNA array
Method in brief: as §1

[3] = variants of: B1; assay: self-cleavage kobs at 160 uM GlcN6P; higher = faster cleavage; RNA array
Method in brief: as §1

[4] = variants of: B1; assay: self-cleavage kobs at 640 uM GlcN6P; higher = faster cleavage; RNA array
Method in brief: as §1

[5] = variants of: B1; assay: self-cleavage kobs at 10000 uM GlcN6P; higher = faster cleavage; RNA array
Method in brief: as §1

A14G C16U G37A C67G C70G
self-cleavage kobs at 40 uM GlcN6P [1]: < 1e-05 s⁻¹ | self-cleavage kobs at 2500 uM GlcN6P [2]: < 1e-05 s⁻¹

A36G C61A G62U C67A
self-cleavage kobs at 40 uM GlcN6P [1]: < 1e-05 s⁻¹

G32C G62A
self-cleavage kobs at 40 uM GlcN6P [1]: < 1e-05 s⁻¹ | self-cleavage kobs at 160 uM GlcN6P [3]: < 1e-05 s⁻¹ | self-cleavage kobs at 640 uM GlcN6P [4]: < 1e-05 s⁻¹ | self-cleavage kobs at 2500 uM GlcN6P [2]: < 1e-05 s⁻¹

G7A C16A U31C G32U G41C
self-cleavage kobs at 40 uM GlcN6P [1]: < 1e-05 s⁻¹

U47A C71U
self-cleavage kobs at 40 uM GlcN6P [1]: 0.000701 ± 8.3e-05 s⁻¹ | self-cleavage kobs at 160 uM GlcN6P [3]: 0.0018 ± 0.0003 s⁻¹ | self-cleavage kobs at 640 uM GlcN6P [4]: 0.00323 ± 0.00057 s⁻¹ | self-cleavage kobs at 2500 uM GlcN6P [2]: 0.00535 ± 0.001 s⁻¹ | self-cleavage kobs at 10000 uM GlcN6P [5]: 0.0342 ± 0.0081 s⁻¹

G43C U46G U69C
self-cleavage kobs at 40 uM GlcN6P [1]: < 1e-05 s⁻¹

A15C G35U
self-cleavage kobs at 40 uM GlcN6P [1]: < 1e-05 s⁻¹ | self-cleavage kobs at 160 uM GlcN6P [3]: < 1e-05 s⁻¹ | self-cleavage kobs at 640 uM GlcN6P [4]: < 1e-05 s⁻¹ | self-cleavage kobs at 2500 uM GlcN6P [2]: < 1e-05 s⁻¹

U47A C68A
self-cleavage kobs at 40 uM GlcN6P [1]: < 1e-05 s⁻¹

A36G U47C
self-cleavage kobs at 40 uM GlcN6P [1]: < 1e-05 s⁻¹ | self-cleavage kobs at 10000 uM GlcN6P [5]: < 1e-05 s⁻¹

C10A G13C
self-cleavage kobs at 40 uM GlcN6P [1]: < 1e-05 s⁻¹ | self-cleavage kobs at 160 uM GlcN6P [3]: < 1e-05 s⁻¹ | self-cleavage kobs at 2500 uM GlcN6P [2]: < 1e-05 s⁻¹ | self-cleavage kobs at 10000 uM GlcN6P [5]: < 1e-05 s⁻¹

U45A U69C
self-cleavage kobs at 40 uM GlcN6P [1]: 0.000354 ± 5.9e-05 s⁻¹ | self-cleavage kobs at 160 uM GlcN6P [3]: 0.000781 ± 0.00033 s⁻¹ | self-cleavage kobs at 640 uM GlcN6P [4]: 0.000518 ± 0.00013 s⁻¹ | self-cleavage kobs at 2500 uM GlcN6P [2]: 0.00166 ± 0.0005 s⁻¹ | self-cleavage kobs at 10000 uM GlcN6P [5]: 0.00144 ± 0.00031 s⁻¹

C10A G43A U45C
self-cleavage kobs at 40 uM GlcN6P [1]: < 1e-05 s⁻¹

G43C G51U
self-cleavage kobs at 40 uM GlcN6P [1]: < 1e-05 s⁻¹ | self-cleavage kobs at 10000 uM GlcN6P [5]: < 1e-05 s⁻¹

G32C A48C G60C
self-cleavage kobs at 40 uM GlcN6P [1]: < 1e-05 s⁻¹

G51U C58A G60U
self-cleavage kobs at 40 uM GlcN6P [1]: < 1e-05 s⁻¹ | self-cleavage kobs at 10000 uM GlcN6P [5]: < 1e-05 s⁻¹

A14U A39C U49A
self-cleavage kobs at 40 uM GlcN6P [1]: < 1e-05 s⁻¹

G7U A52C C70U
self-cleavage kobs at 40 uM GlcN6P [1]: < 1e-05 s⁻¹ | self-cleavage kobs at 640 uM GlcN6P [4]: < 1e-05 s⁻¹ | self-cleavage kobs at 2500 uM GlcN6P [2]: < 1e-05 s⁻¹ | self-cleavage kobs at 10000 uM GlcN6P [5]: < 1e-05 s⁻¹

C34G G38U G40C C68A
self-cleavage kobs at 40 uM GlcN6P [1]: < 1e-05 s⁻¹ | self-cleavage kobs at 10000 uM GlcN6P [5]: < 1e-05 s⁻¹

U31A A64G
self-cleavage kobs at 40 uM GlcN6P [1]: 0.000322 ± 8.5e-05 s⁻¹ | self-cleavage kobs at 160 uM GlcN6P [3]: 0.000708 ± 0.0002 s⁻¹ | self-cleavage kobs at 640 uM GlcN6P [4]: 0.00331 ± 0.0006 s⁻¹ | self-cleavage kobs at 2500 uM GlcN6P [2]: 0.00394 ± 0.0012 s⁻¹ | self-cleavage kobs at 10000 uM GlcN6P [5]: 0.0255 ± 0.0096 s⁻¹

C11U A12U A64U
self-cleavage kobs at 40 uM GlcN6P [1]: < 1e-05 s⁻¹

A1G C34U A52U
self-cleavage kobs at 40 uM GlcN6P [1]: < 1e-05 s⁻¹

G41U G43U U57G G62A C68A
self-cleavage kobs at 40 uM GlcN6P [1]: < 1e-05 s⁻¹ | self-cleavage kobs at 160 uM GlcN6P [3]: < 1e-05 s⁻¹ | self-cleavage kobs at 640 uM GlcN6P [4]: < 1e-05 s⁻¹ | self-cleavage kobs at 2500 uM GlcN6P [2]: < 1e-05 s⁻¹ | self-cleavage kobs at 10000 uM GlcN6P [5]: < 1e-05 s⁻¹

C8U U31G
self-cleavage kobs at 40 uM GlcN6P [1]: < 1e-05 s⁻¹ | self-cleavage kobs at 160 uM GlcN6P [3]: < 1e-05 s⁻¹ | self-cleavage kobs at 640 uM GlcN6P [4]: < 1e-05 s⁻¹ | self-cleavage kobs at 2500 uM GlcN6P [2]: < 1e-05 s⁻¹ | self-cleavage kobs at 10000 uM GlcN6P [5]: < 1e-05 s⁻¹

C11G U31A C50G U57G
self-cleavage kobs at 40 uM GlcN6P [1]: 0.000129 ± 3.6e-05 s⁻¹ | self-cleavage kobs at 2500 uM GlcN6P [2]: 7.48e-05 ± 3e-05 s⁻¹ | self-cleavage kobs at 10000 uM GlcN6P [5]: 5.06e-05 ± 1.6e-05 s⁻¹

A6C A14C A39G C50A
self-cleavage kobs at 40 uM GlcN6P [1]: < 1e-05 s⁻¹

G40U A42U C61A
self-cleavage kobs at 40 uM GlcN6P [1]: < 1e-05 s⁻¹ | self-cleavage kobs at 10000 uM GlcN6P [5]: < 1e-05 s⁻¹

C11A A14C G63C U69C
self-cleavage kobs at 40 uM GlcN6P [1]: < 1e-05 s⁻¹

G29C C67U
self-cleavage kobs at 40 uM GlcN6P [1]: 2.43e-05 ± 8.3e-06 s⁻¹ | self-cleavage kobs at 640 uM GlcN6P [4]: 0.000126 ± 1.3e-05 s⁻¹ | self-cleavage kobs at 2500 uM GlcN6P [2]: 0.000201 ± 2.6e-05 s⁻¹ | self-cleavage kobs at 10000 uM GlcN6P [5]: 0.000975 ± 0.0002 s⁻¹

A15G A36C C68G
self-cleavage kobs at 40 uM GlcN6P [1]: 6.45e-05 ± 2.9e-05 s⁻¹

U46C G59U
self-cleavage kobs at 40 uM GlcN6P [1]: < 1e-05 s⁻¹ | self-cleavage kobs at 160 uM GlcN6P [3]: < 1e-05 s⁻¹

A6G G60U
self-cleavage kobs at 40 uM GlcN6P [1]: < 1e-05 s⁻¹ | self-cleavage kobs at 160 uM GlcN6P [3]: < 1e-05 s⁻¹ | self-cleavage kobs at 640 uM GlcN6P [4]: < 1e-05 s⁻¹

A14G G62A
self-cleavage kobs at 40 uM GlcN6P [1]: < 1e-05 s⁻¹

G35U G38C
self-cleavage kobs at 40 uM GlcN6P [1]: < 1e-05 s⁻¹ | self-cleavage kobs at 640 uM GlcN6P [4]: < 1e-05 s⁻¹ | self-cleavage kobs at 2500 uM GlcN6P [2]: < 1e-05 s⁻¹ | self-cleavage kobs at 10000 uM GlcN6P [5]: < 1e-05 s⁻¹

G7C C11A C50U U54C C58A C70A
self-cleavage kobs at 40 uM GlcN6P [1]: 0.000371 ± 0.00013 s⁻¹

G9A U57G
self-cleavage kobs at 40 uM GlcN6P [1]: < 1e-05 s⁻¹ | self-cleavage kobs at 160 uM GlcN6P [3]: < 1e-05 s⁻¹ | self-cleavage kobs at 640 uM GlcN6P [4]: < 1e-05 s⁻¹ | self-cleavage kobs at 2500 uM GlcN6P [2]: < 1e-05 s⁻¹

G29U A52C G66A
self-cleavage kobs at 40 uM GlcN6P [1]: < 1e-05 s⁻¹

A48C A52C
self-cleavage kobs at 40 uM GlcN6P [1]: < 1e-05 s⁻¹ | self-cleavage kobs at 160 uM GlcN6P [3]: < 1e-05 s⁻¹ | self-cleavage kobs at 640 uM GlcN6P [4]: < 1e-05 s⁻¹ | self-cleavage kobs at 2500 uM GlcN6P [2]: < 1e-05 s⁻¹ | self-cleavage kobs at 10000 uM GlcN6P [5]: < 1e-05 s⁻¹

U30G C50G
self-cleavage kobs at 40 uM GlcN6P [1]: 0.000146 ± 6.1e-05 s⁻¹ | self-cleavage kobs at 160 uM GlcN6P [3]: 7.58e-05 ± 2.1e-05 s⁻¹ | self-cleavage kobs at 640 uM GlcN6P [4]: 7e-05 ± 2.2e-05 s⁻¹ | self-cleavage kobs at 2500 uM GlcN6P [2]: 0.000109 ± 2.3e-05 s⁻¹

C10U A48C
self-cleavage kobs at 40 uM GlcN6P [1]: < 1e-05 s⁻¹ | self-cleavage kobs at 160 uM GlcN6P [3]: < 1e-05 s⁻¹ | self-cleavage kobs at 640 uM GlcN6P [4]: < 1e-05 s⁻¹ | self-cleavage kobs at 2500 uM GlcN6P [2]: < 1e-05 s⁻¹ | self-cleavage kobs at 10000 uM GlcN6P [5]: < 1e-05 s⁻¹

A39U G43A C50U
self-cleavage kobs at 40 uM GlcN6P [1]: < 1e-05 s⁻¹

A6G C16G G66C
self-cleavage kobs at 40 uM GlcN6P [1]: < 1e-05 s⁻¹

A14G C67U
self-cleavage kobs at 40 uM GlcN6P [1]: 0.000746 ± 0.00014 s⁻¹ | self-cleavage kobs at 160 uM GlcN6P [3]: 0.00183 ± 0.00033 s⁻¹ | self-cleavage kobs at 640 uM GlcN6P [4]: 0.00612 ± 0.00075 s⁻¹ | self-cleavage kobs at 2500 uM GlcN6P [2]: 0.0171 ± 0.0057 s⁻¹

C34A U54C C61G
self-cleavage kobs at 40 uM GlcN6P [1]: < 1e-05 s⁻¹ | self-cleavage kobs at 160 uM GlcN6P [3]: < 1e-05 s⁻¹

G7U G35C U57A
self-cleavage kobs at 40 uM GlcN6P [1]: < 1e-05 s⁻¹ | self-cleavage kobs at 2500 uM GlcN6P [2]: < 1e-05 s⁻¹

G29C G41U A48G U49C G60C
self-cleavage kobs at 40 uM GlcN6P [1]: < 1e-05 s⁻¹ | self-cleavage kobs at 10000 uM GlcN6P [5]: < 1e-05 s⁻¹

G7U C16G A36C A42C A52G
self-cleavage kobs at 40 uM GlcN6P [1]: < 1e-05 s⁻¹

U45C C58U
self-cleavage kobs at 40 uM GlcN6P [1]: < 1e-05 s⁻¹ | self-cleavage kobs at 160 uM GlcN6P [3]: < 1e-05 s⁻¹ | self-cleavage kobs at 640 uM GlcN6P [4]: < 1e-05 s⁻¹ | self-cleavage kobs at 2500 uM GlcN6P [2]: < 1e-05 s⁻¹

C34U G38C C67U
self-cleavage kobs at 40 uM GlcN6P [1]: < 1e-05 s⁻¹ | self-cleavage kobs at 10000 uM GlcN6P [5]: < 1e-05 s⁻¹

G13A G43U
self-cleavage kobs at 40 uM GlcN6P [1]: < 1e-05 s⁻¹ | self-cleavage kobs at 160 uM GlcN6P [3]: < 1e-05 s⁻¹ | self-cleavage kobs at 640 uM GlcN6P [4]: < 1e-05 s⁻¹

G38U A39G G43U G44C
self-cleavage kobs at 40 uM GlcN6P [1]: < 1e-05 s⁻¹ | self-cleavage kobs at 10000 uM GlcN6P [5]: < 1e-05 s⁻¹

A15U G60A C61A G66U
self-cleavage kobs at 40 uM GlcN6P [1]: < 1e-05 s⁻¹

C8A A33U C34A U56A
self-cleavage kobs at 40 uM GlcN6P [1]: < 1e-05 s⁻¹
